The supplement of paper PMC10567573

B1: TIA1 (parent)
chain: TYECRCIGEEKEMWNFGEKYARF
B2: SOAT1 (parent)
chain: GVLILFLTFFAFLHCWLNAFAEML

Variants of: B1
Assay: protein stability index of a GFP-peptide fusion (GPS, HEK-293T) (PSI 1-6); higher = more stable
Settings: c terminus: native
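Further: lentivirally expressed fusions sorted by FACS into six bins by GFP to DsRed ratio, PSI derived from sequencing read proportions per bin multiplied by bin number.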

Variant	protein stability index
A21F	2.02
A21G	2.11
A21H	3.06
A21I	2.72
A21K	2.8
A21L	2.19
A21M	1.99
A21P	3.79
A21Q	2.04
A21R	2.71
A21S	1.97
A21T	1.44
A21V	2.37
A21W	2.42
A21Y	1.89
R22A	1.79
R22C	1.36
R22D	3.77
R22E	3.2
R22F	2.23
R22G	2.63
R22H	2.82
R22K	3.59
R22L	1.01
R22M	1.51
R22N	3.1

Variant	protein stability index
R22P	1.92
R22Q	2.92
R22S	2.29
R22T	2.49
R22V	2.84
R22W	1.6
R22Y	1.81
F23A	3.29
F23C	1.61
F23D	3.5
F23E	3.42
F23G	2.11
F23H	1.83
F23I	1.59
F23K	3.29
F23L	1.29
F23M	2.54
F23N	1.87
F23P	2.69
F23Q	1.48
F23R	1.52
F23S	2.2
F23T	1.87
F23W	2.64
F23Y	2.18

Variants of: B2
Assay: as above
Settings: c terminus: a fixed tail appended

Variant	protein stability index
G1A	3.39
G1C	2.93
G1E	3.49
G1F	2.2
G1H	3.67
G1I	3.7
G1K	2.23
G1M	2.94
G1N	3.26
G1P	3.53
G1Q	2.35
G1R	4.47
G1S	4.28
G1T	3.35
G1V	3.18
G1W	1.61
G1Y	2.49
V2A	2.01
V2C	2.05
V2D	2.14
V2E	2.17
V2F	2.32
V2H	2.35
V2I	2.62

Variant	protein stability index
V2K	2.31
V2L	1.03
V2M	2.26
V2N	1.42
V2P	1.74
V2Q	2.56
V2R	3.5
V2S	1.98
V2T	2.72
V2W	2.95
V2Y	2.31
L3A	2.52
L3C	3.65
L3D	2.13
L3E	2.74
L3F	2.69
L3G	2.85
L3H	2.34
L3K	1.94
L3M	3.1
L3P	3.1
L3R	2.98
L3S	3.06
L3T	3.86

Variant	protein stability index
L3V	3.82
L3W	3.13
L3Y	2.94
I4A	2.03
I4C	2.42
I4D	1.73
I4E	2.23
I4F	1.75
I4G	4.32
I4H	1.85
I4K	1.43
I4L	2.76
I4M	3.03
I4N	3.78
I4P	2.26
I4Q	4.98
I4R	3.74
I4S	2.66
I4T	3.27
I4V	2.92
I4W	2.43
I4Y	3.33
L5A	2.42
L5C	2.84

Variant	protein stability index
L5D	4.32
L5E	3.38
L5G	2.13
L5H	3.32
L5I	2.23
L5K	2.87
L5M	1.72
L5N	3.7
L5Q	3.75
L5R	2.57
L5T	2.34
L5V	1.91
L5W	2.17
L5Y	3.59
F6A	3.95
F6D	1.78
F6G	1.72
F6H	2.63
F6I	2.63
F6M	1.35
F6P	2.63
F6Q	3.85
F6R	3.83
F6S	2.73

Variant	protein stability index
F6T	2.02
F6V	3.25
F6Y	3.06
L7A	3.84
L7C	1.91
L7D	2.11
L7E	3.09
L7F	1.85
L7G	2.95
L7I	2.4
L7K	3.37
L7M	2.38
L7N	3.81
L7P	2.68
L7Q	2.92
L7R	3.36
L7V	2.56
L7W	4.58
T8A	3.88
T8C	1.01
T8D	2.71
T8E	2.8
T8F	3.81
T8G	2.61

Variant	protein stability index
T8H	3.09
T8I	2.42
T8L	2.04
T8M	2.6
T8N	2.38
T8P	3.34
T8Q	1.69
T8S	3.41
T8V	2.33
T8W	1.47
T8Y	3.57
F9A	1.36
F9C	3.31
F9D	3.34
F9E	3.8
F9G	4.01
F9H	4.54
F9I	1.34
F9K	3.13
F9M	3.56
F9N	2.46
F9P	3.94
F9Q	2.33
F9S	1.94

Variant	protein stability index
F9T	2.68
F9V	3.43
F9W	3.04
F9Y	2.83
F10A	3.62
F10C	2.63
F10E	2.27
F10H	2.17
F10I	2.54
F10K	2.35
F10L	2.24
F10M	1.67
F10N	3.82
F10Q	4.33
F10R	3.84
F10S	2.2
F10T	3.52
F10V	2.75
F10Y	3.58
A11C	1.84
A11D	2.82
A11F	2.48
A11G	1.15
A11H	2.31

Variant	protein stability index
A11I	3.38
A11K	2.37
A11L	1.75
A11M	3.5
A11P	3.29
A11Q	2.55
A11R	3.9
A11S	2.69
A11T	3.07
A11V	1.88
A11W	1.64
A11Y	2.09
F12A	2.65
F12C	3.26
F12D	2.27
F12E	3.48
F12G	2.81
F12H	2.43
F12I	2.6
F12K	3.54
F12L	2.09
F12M	2.87
F12N	3
F12Q	2.71

Variant	protein stability index
F12R	2.64
F12S	3.35
F12T	2.42
F12V	1.84
F12W	2.92
F12Y	2.75
L13A	4.05
L13C	2.83
L13D	3.39
L13E	3.16
L13F	2.74
L13G	2.86
L13H	2.45
L13I	2.17
L13K	3.57
L13N	3.07
L13P	2.6
L13Q	4.15
L13R	2.96
L13S	3.65
L13T	3.62
L13V	2.57
L13W	3.93
L13Y	2.48

Variant	protein stability index
H14A	2.22
H14C	2.17
H14D	3.15
H14E	2.94
H14F	1.52
H14G	2.45
H14I	1.95
H14K	2.17
H14L	1.87
H14M	2.07
H14P	2.06
H14Q	2.47
H14R	2.68
H14S	2.02
H14T	2.06
H14V	1.48
H14W	2.17
H14Y	2.09
C15A	2.75
C15D	1.44
C15E	2.28
C15F	2.27
C15G	2.01
C15H	1.99

Variant	protein stability index
C15I	2.55
C15K	3.47
C15L	2.97
C15M	3.37
C15N	3.02
C15P	2.81
C15Q	3.3
C15R	1.95
C15S	1.83
C15T	2.47
C15V	2
C15W	3.12
C15Y	2.79
W16A	2
W16C	2.68
W16D	2.4
W16E	3.24
W16F	3.85
W16G	3.64
W16H	3.94
W16I	2.96
W16K	2.19
W16L	3.2
W16M	3.65

Variant	protein stability index
W16N	2.59
W16P	2.19
W16Q	2.55
W16S	3.04
W16T	3.45
W16V	3.12
W16Y	2.31
L17A	2.74
L17C	2.63
L17D	2.9
L17E	3.02
L17F	2.8
L17G	2.06
L17H	1.87
L17I	2.26
L17K	3.15
L17M	2.95
L17N	2.84
L17P	2.22
